# Measured values taken from the nanobody polyreactivity screen of Harvey et al. (2022).
# Test: yeast display, Sf9 membrane polyspecificity reagent, FACS + sequencing; frameworks hold sequencing errors
# Outline: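 In a synthetic yeast display library (Saccharomyces cerevisiae BJ5465), nanobody expression was induced with galactose for 36–48 hours. FACS gates were set low and high (top ~1%) using anti-HA fluorescence for expression and streptavidin fluorescence for binding of the Sf9 membrane reagent. Each polyreactivity label is drawn from the gate of origin.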
row,Sequence,polyreactivity (PSR sort gate)
1,QDQLVESGGGLVQAGGSLRLSCAASGRTFTRYTMGRYRPAPVKERELVAAISSGGSTTYADSVKGRFTISRDNAKNTVYLQMNSLKPEDTAVYYCAAGLVYRGYRRDYWGQGTQVTVSS,low polyreactivity
2,QVQLVESGGGLVQAGGSLRLSCAASGFTFGYNDMGWYRQAPGKERELVAAIRLSDGGTYYADSVKGRFTISRDNAKNTVYLQMNSLKPEDTAVYYCAAPQDTYIPYDYWGQGTQVTVSS,low polyreactivity
3,QVQLVESGGGLVQAGGSLRLSCAASGATFSVNAMGWYRQAPGKEREWVAAISSTGSTKYADSVKGRFTISRDNAKNPVYLQMNSLKPEDTAVYCAASNADYEYYPFSVWYFSPYDYWGHGTQVTVSS,low polyreactivity
4,QVQLEESGGGLVQAGGSLRLSCAASGLTFRSYAMGWYRQAPGTEREFVAAITGSGDTTYYAVSVKGRFTISRDNALNTVYLQMNSLNPEETAGYYCNADRDYLWITLYEYWGQGTQLTVSS,high polyreactivity
5,QVQLVESGGGLVQAGGSLRLSCAASGLIFYKNAMGWYRQAPGKEREFVAAISRSGASTYYADSVKARFTISRDNAKNTVYLQMNSLKPEDTAVYYCAARAGANYRMDYWGQGTQVTVSS,high polyreactivity
6,QVQLVESGGGLVQAGGSLRLSCAASGRIFDRYAMGWYRQAPGKEMELVAAISSDANTYYADSVKGRFTISRDNAKNTVYLQMNSLKPEDTAVYYCAKVVKGDHPYDYWGQGTQVTVSS,high polyreactivity
7,QVQLVESGGGLVQAGGSLRLSCAASGRTFRAYAMGWYRQAPGKERELVAAISGTGDRTYYADSVKGRFTISRDYAKNTVYLQMNSLKPEDTAVYYCAVSYSYRYYYWGQGTQVTVSS,high polyreactivity
8,QVQLVESGGGLVQAGGSLRLSCAASGRNFYRYGMGWYRQAPGKERELVAAITYGGGSTYADSVKGRFTISRDNAKNTVYLQMNSLKPEDTAVYYCNARSRYRHYGFDYWGQGTQVTVSS,high polyreactivity
9,QVQLVESGGGLVQAGGTLRLSCAPSGSTFYANTMGWYRPAPGKERELVATISWTGSSTYYADSVKGRFTISRDNAKNTVYLQMNSLNPEDTAVYYCNKRYYYRRNYWGQGTQVTVSS,high polyreactivity
10,QVQLVESGGGLVQAGGSLRLSCAASGFIFYEYAMGWYRQATGKERELVAAITYSAGSTYYADSVKGRFTISRDNAKNTVYLQMNSLKPEDTAVYFCAKVDSEYRQVIQQEDDYWGQGTQVTVSS,low polyreactivity
11,QVQLVESGGGLVQAGGSLRLSCAASGSIIVYYAMGWYRQAPGKERELVAAIRVRGGSTYYADSVKGRFTISRDTAKNTVYLQMNSLKPEDTAVYYCATAGRYGRYRTNAYRSKYDYWGQGTQVTVSS,high polyreactivity
12,QVQLVESGGGLVQAGGSLRLSCAASGFIFSHYTMGWYRQAPGKERELVAGISWSGGNTYYADSVKGRFTISRDNAKNTVYLQMISLKPEDTAVYYCNADWIGVPLAYDYWGQGTQVTVSS,low polyreactivity
13,QVQLVESGGGLVQAGGSLRLSCAASGFIFWTYAMGWYRQAPGKERELVARISWSGGSTYYADSVKGRFTISRDNAKNTVYLQMNSLKPEDTAVYYCARLATLYESIEYDYWGQGTQVTVSS,low polyreactivity
14,QVQLVESGGGLVQAGGSLRLSCAASGRTFGKNAMGWYRQAPGKEREFVAAITSRGGSTYYADSVKGRFTISRDNAKNTVYLQMNSLKAEDTAVYYCNREYIRPSQRTEHYYWGQGTQVTVSS,low polyreactivity
15,QVQLLESGGGLVQAGGRLRLSCADSGGIIAYNAIGWYRQAPAKERELVAAISSSGGRTYYADSVKGRFTISRDNAKITVYLQMNSLKPEDTAVYYFAAVRSGIEYGYWGQGTQVTVSS,high polyreactivity
16,QVQLLDSGGGLVQAGGSLSLSCAASGSSFRYYAMGWYRPAPRKEREFVADISWSGSSTYYADSVKGRFTISRDNSKITVYLLMNSLTPEDTAVYYCAARYRYRSSSYDYWGQGTQVTVSS,high polyreactivity
17,QVQLVESGGGLVQAGGSLRLSCAASGRTFDVYAMGWYRQAPGKERELVATISRSGGSTYYADSVKGRFTISRDNAKNTVYLQMNSLKPEDTAVYYCAARKRSPPYGYWGQGTQVTVSS,high polyreactivity
18,QVQLVESGGGLFQAGGSLRISCAASGGTFFRYAMGWYRQAPGKERELVAAITWSSGSTYYADSVKGRFTISRDNAKNTGYLQMNSLKPEDTAVYYYDYYTYGDYWGQGTEVTVSS,low polyreactivity
19,QVQLVESGGGLVQAGGSLRLSCAASGSTFLYYTMGWYRQAPGKERELVAAITGSGTSTYYADSVKGRFTISRDNAKNTVYLQMNSLKPEDTAVYYCAARGHGRLYYWGHGTQVTVSS,high polyreactivity
20,QVQLVESGGGLFQAGGSLRLSCAASGRIFPYKVMGWYRQAPGKERELVAAISSGGTTDYADSVKGRFTISRDNAKNTVYLQMNSLKPEDTAVYYCASTYVYWTWGYDYWGQGTQVTVSS,low polyreactivity
21,QVQLVESGGGLVQAGGSLRLSCAASGRIFKYYAKGWYRQAPGKERELVAAISWSGGRTYYADSVKGRFTISRDNAKTTVYLQMNSLKPEDTAVYDCNAASLRYSYTLFDSWGQGTQVTVSS,high polyreactivity
22,QVQLVESGGGLVQAGGSRRLICAASGITFFAYTLGWYRQAPGKERELVASITGSSGGTYYADSVKGRFTISRDNAKNTVYLQMNSLKPEDTAVYYCATAYGRKLLLRGFYDQSHDMDYWGQGTQVTVSS,low polyreactivity

row,Sequence,polyreactivity (PSR sort gate)
1,QGQLVDSGGGLVQAGGSLRLICAASGYIFRLYAMGWYRHAPGKERELVAAISRRGGSTYYADSVKGRFTISRDNAKITVYLQMNSLKPEDTAVYYGATDHSYIDDYWGQGTQVTVSS,high polyreactivity
2,QVQLVESGGGLVQAGGSLRLSCAASGSIFWYNAMGWSRPAPGKERELVAAITWSGGSTYYADSVKGRFTISRDNAKNTVYLQMNSLKPEDTAVYYCATVPHYYYDYDYWGQGTQVTVSS,low polyreactivity
3,QVQLVESGGGLVQAGGSLRLSCAASGYIFHNYAMGWYIQAPGKERELVAAITRSAGRTYYADSVKGRFTISRDNAKNTVYLQMNSLKPEDTAVYYCNARYGGRFYYCGQGTQVTVSS,high polyreactivity
4,QVQLVESGGGLVQAGGSLRLSCAASGFIFSWYVMGWYRQAPGKERELVAAISQSGGDTYYADSVKGRFTFSRDNAKNTVYLQMNILKPEDTAVYYCAVGRVGRFYYWGQGTQVTVSS,high polyreactivity
5,QVQLVESGGGLVQAGGSLRLSCAASGFIFGDYAMGWYRQAPGKERELVAAISRSGGRTYYADSVKGRFTISRDNAKNTVYLQMNSLKPEDTAVYYCAKSSLNIYDYWGQGTQVTVSS,high polyreactivity
6,HVQLQESGGGLVQAGGSLRLSCAASGSIFQATYMGWYRQAPGKEREFVASITYGSITNYADSVKGRFTIGRDNPKDTLYLQMNSLKPEDTAVYYCAVDRHYIPAFHYWGQGTQVTVSS,low polyreactivity
7,QVQLVESGGGLVQAGGSLRLSCAASGRTFGRYAMGWYRQAPGKERELVATITSGGSTNYADSVKGRFTISRDNAKNTVYLQMNSLKPEDTAVYYCAAEFSPSRWAYSEGALRYHYWGQGTQVTVSS,low polyreactivity
8,QVQLVESGGGLVQAGGSLRLSCAASGRIFSDYAMGWYRQAPGKERELVATITSGDSTNYEDSVKGRFTISRDNAKNTVYLQMNSLKPVDTAVYYCIADRYADYDYWGQGTQVTVSS,low polyreactivity
9,QVQLVESGGGLVQAGGSLRLSCAASGITFPINTMGWYRQAPGKERELVAGIDWTGGSTYYADSVKGRFTISRDNAKIPVYLLMNSLKPEHTAVYYCAKTRRRLLTRYDYWGQGTQVTVSS,low polyreactivity
10,QVQLVESRGGLVQAGGSLRLSCAASGSIFRGYAMGWYRQAPGKERELVAAIRRGVITNYADSVKGRFTISRDNAKNTVYLQMNSLKPEDTAVYYCYAVRRWRTSQFDYWGQGTLVTVSS,low polyreactivity
11,QVQLVESGGGLVQAGGSLRLSCAASGSTFYKNAMGWYRQAPGKERELVAAITRSGGSTYYADSVKGRFTISRDNAKNTVYLQMNSLKPEDTAVYYCAYYPYGYDYWGQGTQVTVSS,high polyreactivity
12,QVQLVESGGGLVQAGGSLRLSCAASGRTFLTYVMGRYRQAPGKERELVAAITRGGRTNYADSVKGRFTISRDNAKNTVYLQMNSLKPEDTAVYYCARDDTPRYDYWGQGTQVTVSS,low polyreactivity
13,QGQLVESGGGLVQAGGSLRLSCAASGSTFSDYAKGWYRQAPGKERELVAGITGGGGTYYADSVKGRFTISRDNAKNTVYLQMNSLKPEDTAVYYCAAGRRHGFGYWGQGTQVTVSS,low polyreactivity
14,QVQLVESGGGLVQAGGSLRLSCAASGSTFRRNAMGWYRQAPGKERELVAAIRYSGSSTYYADSVKGRFTISRGNAKNTVYLQMNSLKPEDTAVYYCATVRNNRYKYDYWGQGTQVTVSS,high polyreactivity
15,QVQLVESGGGLFQAGGSLRLICADSGRTFGYNAMGWYRKATGKDRELVAAINWSGASTYYADSVKGRFTISRDNAKNTVYLQMNCLKPEDTAVYYCAAAYSYIYGFDYWGQGTQVTVSS,low polyreactivity
16,QDQIVESGGGLVQAGGSLRLSCAASGRTFGVNTMGWSRQAPGKVREMVASISTSGGSTYADSVKGRFTISRDNPKNTVYLQMNSLKPEDSAVYYCAKDTDAVYDEFDSWGQGTQVTVSS,low polyreactivity
17,QVQLVESGGGLVQAGGSLRLSCAASGRIFLGNVMGWSRQAPGKERELVAAISSGGSTNYADSVKGRFTISRDNAKNTVYLQMNSLKPEDTAVYYCAAYFVRDWKLYYYWGQGTHVTVSS,low polyreactivity
18,QDQLVESGGGLVQAGGSLRLSCAASGRNIGGYAMGWNRLAPGKEWELVAAISRSGGSTYYADSVKGRFTISRDNAKNTVYLQMNSLKPEDTAVYYCAAETVSSFYTLWTGKYDYWGQGTQVTVSS,high polyreactivity
19,QVQLVESAGGLVQAGGSLRLSCAASGRIFPYNVIGWYRQAPGKERELVAAISSGGTTDYADSVKGRFTISRDNAKNTVYLQMNSLKPEDTAVYYCAATYVYWTWGYDYWGQGTQVTVSS,low polyreactivity
20,LVQLVESGGCLVQAGGSLRVSCAASGTIFQIKAMGWYRQAPGIEREKVATIRWRGSSTYYADSVKGRFTISRDNAKNTVYLQKNSLKPEDTAVYYSAARAGTLNSGGYYSWGQGTQVSVSS,high polyreactivity
21,QVQLVESGGGLVQAGGSLRLSCAASGSTYIANPMGWYRQAPGKEREFLATISRRGGSTYYADSVKGRFTISRDNAKNTVYLQMNSLKPEDTAVYYCAARPLTYIRFRYYYWGQGTQVTVSS,high polyreactivity
